Results as given in patent US20170007714A1 (ONCOMATRYX BIOPHARMA S L, published 2017).

T1: human Endoglin on HT1080 cells (human, UniProt P17813 26-658)
T1 construct: also called ENG-positive HT1080
T1 sequence: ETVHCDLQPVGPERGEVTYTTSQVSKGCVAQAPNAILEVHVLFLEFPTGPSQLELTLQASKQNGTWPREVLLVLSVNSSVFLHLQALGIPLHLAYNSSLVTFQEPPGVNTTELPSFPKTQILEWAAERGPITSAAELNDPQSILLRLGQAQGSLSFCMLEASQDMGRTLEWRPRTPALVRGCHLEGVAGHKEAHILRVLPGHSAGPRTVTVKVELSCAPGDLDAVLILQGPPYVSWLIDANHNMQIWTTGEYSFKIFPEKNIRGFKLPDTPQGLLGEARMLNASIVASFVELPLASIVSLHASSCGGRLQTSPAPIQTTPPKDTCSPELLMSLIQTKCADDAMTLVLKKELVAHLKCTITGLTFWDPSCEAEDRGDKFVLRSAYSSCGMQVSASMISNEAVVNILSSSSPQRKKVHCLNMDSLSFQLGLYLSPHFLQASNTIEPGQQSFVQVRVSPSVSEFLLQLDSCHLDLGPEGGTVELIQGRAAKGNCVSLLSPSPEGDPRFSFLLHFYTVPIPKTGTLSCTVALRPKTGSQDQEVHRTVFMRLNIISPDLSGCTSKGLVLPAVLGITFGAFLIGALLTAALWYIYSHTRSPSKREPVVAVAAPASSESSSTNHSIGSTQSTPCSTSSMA

T2: recombinant human Endoglin (human, UniProt P17813 26-586)
T2 construct: It states only that the extracellular domain is residues 26-561; also called rhENG; recombinant human ENG
T2 sequence: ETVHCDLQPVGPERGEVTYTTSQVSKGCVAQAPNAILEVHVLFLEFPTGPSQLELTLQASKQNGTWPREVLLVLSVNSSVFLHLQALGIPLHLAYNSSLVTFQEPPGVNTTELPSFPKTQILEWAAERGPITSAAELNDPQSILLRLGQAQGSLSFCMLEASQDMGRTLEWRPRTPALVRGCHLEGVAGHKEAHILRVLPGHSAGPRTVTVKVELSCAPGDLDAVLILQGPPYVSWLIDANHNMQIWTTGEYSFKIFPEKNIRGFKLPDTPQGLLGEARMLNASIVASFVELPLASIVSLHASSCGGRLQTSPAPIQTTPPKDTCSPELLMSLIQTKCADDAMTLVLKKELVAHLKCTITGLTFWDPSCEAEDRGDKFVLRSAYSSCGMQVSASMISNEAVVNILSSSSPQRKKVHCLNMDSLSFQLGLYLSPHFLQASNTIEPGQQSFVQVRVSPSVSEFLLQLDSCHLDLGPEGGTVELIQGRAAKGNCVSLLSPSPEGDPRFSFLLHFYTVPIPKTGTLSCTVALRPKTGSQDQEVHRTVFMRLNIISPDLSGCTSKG

T3: mouse Endoglin on eEnd2 cells (mouse, UniProt Q63961 27-653)
T3 construct: also called ENG expressing mouse eEnd2
T3 sequence: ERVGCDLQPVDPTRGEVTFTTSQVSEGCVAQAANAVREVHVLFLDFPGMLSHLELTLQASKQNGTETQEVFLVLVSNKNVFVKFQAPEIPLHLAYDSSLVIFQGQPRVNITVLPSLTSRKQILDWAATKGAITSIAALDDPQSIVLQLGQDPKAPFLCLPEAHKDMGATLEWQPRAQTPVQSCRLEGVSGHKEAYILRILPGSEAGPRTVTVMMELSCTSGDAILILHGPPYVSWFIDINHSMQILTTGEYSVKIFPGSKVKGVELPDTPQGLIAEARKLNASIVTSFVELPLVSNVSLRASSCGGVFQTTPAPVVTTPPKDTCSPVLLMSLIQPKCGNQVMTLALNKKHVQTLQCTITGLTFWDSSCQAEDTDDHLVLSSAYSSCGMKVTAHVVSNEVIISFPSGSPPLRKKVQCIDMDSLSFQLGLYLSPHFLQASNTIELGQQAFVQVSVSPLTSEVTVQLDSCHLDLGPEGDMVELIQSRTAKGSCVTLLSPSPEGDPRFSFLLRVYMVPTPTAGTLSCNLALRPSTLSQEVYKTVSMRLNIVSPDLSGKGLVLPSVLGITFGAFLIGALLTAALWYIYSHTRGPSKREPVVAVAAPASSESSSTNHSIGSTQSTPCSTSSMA

T4: recombinant mouse ENG (aa 27-581) (mouse, UniProt Q63961 27-581)
T4 construct: also called rmENG; recombinant mouse Endoglin
T4 sequence: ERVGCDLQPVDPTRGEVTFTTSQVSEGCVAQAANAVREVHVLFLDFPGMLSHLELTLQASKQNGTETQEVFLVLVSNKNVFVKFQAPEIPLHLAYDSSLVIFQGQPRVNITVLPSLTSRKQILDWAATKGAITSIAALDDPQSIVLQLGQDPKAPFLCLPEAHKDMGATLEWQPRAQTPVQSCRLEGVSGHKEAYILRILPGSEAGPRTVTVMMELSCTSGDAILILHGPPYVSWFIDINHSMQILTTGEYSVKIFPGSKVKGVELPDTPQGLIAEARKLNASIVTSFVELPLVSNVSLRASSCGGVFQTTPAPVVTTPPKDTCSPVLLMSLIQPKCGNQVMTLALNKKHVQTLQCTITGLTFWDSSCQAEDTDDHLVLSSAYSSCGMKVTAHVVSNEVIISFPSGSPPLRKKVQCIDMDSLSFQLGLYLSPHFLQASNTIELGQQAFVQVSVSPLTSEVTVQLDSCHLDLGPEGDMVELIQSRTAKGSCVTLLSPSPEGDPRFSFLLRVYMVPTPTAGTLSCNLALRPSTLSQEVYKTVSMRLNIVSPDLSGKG


Legend:
[1] = biological target: T1, human Endoglin on HT1080 cells; test: flow cytometry on ENG-positive HT1080 cells
Method: (§1) Cell binding was analyzed by flow cytometry, using ENG-positive HT1080 and ENG expressing mouse eEnd2.

[2] = biological target: T2, recombinant human Endoglin; test: QCM (Attana A100) on rhENG; first of two constants
[3] = biological target: T2, recombinant human Endoglin; test: QCM (Attana A100) on rhENG; second of two constants (avidity contribution noted)
[4] = biological target: T5, BSA (UniProt P02769 25-607); test: ELISA, coated BSA as negative control
T5 construct: also called coated BSA; negative control (BSA)
T5 sequence (P02769 25-607 limits assumed): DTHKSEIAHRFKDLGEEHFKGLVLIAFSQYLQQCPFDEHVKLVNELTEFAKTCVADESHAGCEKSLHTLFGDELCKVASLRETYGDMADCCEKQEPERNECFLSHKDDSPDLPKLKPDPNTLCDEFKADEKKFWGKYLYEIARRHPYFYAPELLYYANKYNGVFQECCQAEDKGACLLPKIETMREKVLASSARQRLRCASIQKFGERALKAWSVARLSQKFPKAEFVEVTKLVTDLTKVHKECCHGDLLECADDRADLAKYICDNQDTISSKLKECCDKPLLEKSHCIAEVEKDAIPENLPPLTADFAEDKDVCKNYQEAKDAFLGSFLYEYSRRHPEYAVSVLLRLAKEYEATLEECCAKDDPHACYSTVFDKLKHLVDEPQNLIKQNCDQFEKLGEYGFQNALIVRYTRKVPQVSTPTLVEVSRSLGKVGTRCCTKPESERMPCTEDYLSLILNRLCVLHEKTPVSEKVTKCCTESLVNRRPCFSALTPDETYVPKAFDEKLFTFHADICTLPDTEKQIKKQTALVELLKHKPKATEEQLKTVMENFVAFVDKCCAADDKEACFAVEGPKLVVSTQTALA

[5] = biological target: T3, mouse Endoglin on eEnd2 cells; test: flow cytometry on ENG-expressing mouse eEnd2 cells
Method: as §1

[6] = biological target: T4, recombinant mouse ENG (aa 27-581); test: ELISA on recombinant mouse ENG, detection with HRP-conjugated anti-human IgG

Binder | EC50 [1] | Kd [2] | Kd [3] | binding result [4] | EC50 [5] | EC50 [6]
anti-human Endoglin A5-IgG1 (antibody, V domains shown, Full-length human IgG1 (gamma1*/kappa, deficient for ADCC and CDC), made from the scFv A5 and produced in CHO cells; also called anti-huENG A5; A5 anti-huENG IgG1) VH: EVQLLESGGGLVQPGGSLRLSCAASGFTFSSYAMSWVRQAPGKGLEWVSAIYGSDGDTTYADSVKGRFTISRDNSKNTLYLQMNSLRAEDTAVYYCARVFYTAGFDYWGQGTLVTVSS VL: DIELTQSPSSLSASVGDRVTITCRASQSISSSLNWYQQKPGKAPKLLIYAASSLQSGVPSRFSGSGSGTDFTLTISSLQPEDFATYYCQQAPAKPPTFGQGTKLEIKR | 0.4 nM | 260 nM | 2.5 nM |  |  | 
anti-murine Endoglin mE12-IgG1 (antibody, V domains shown, Full-length human IgG1 (gamma1*/lambda, deficient for ADCC and CDC), made from the scFv mE12 and produced in CHO cells; also called anti-muENG mE12; OCMTX004p) VH: EVQLVESGGGVVQPGRSLRLSCAASGFTFSSYGMHWVRQAPGKGLVWVSRINSDGSSTSYADSVKGRFTISRDNSKNTLYLQMNSLRAEDTAVYYCARATGTWVMSWGQGTLVTVSS VL: SSELIQDPAVSVALGQTVRITCQGDSLRSYYASWYQQKPGQAPVLVIYGKNNRPSGIPDRFSGSSSGNTASLTITGAQAEDEADYYCNSRDSSGTVFGGGTKLTVLG |  |  |  | no binding | 89 nM | 60 nM
